The nature of the series: soluble on expression in E. coli; label from the status in PepcDB or PDB records.
As to “NVHREWAANEKTAMESALGMSYAGKRALVCMKHVGMNVAADCFMNAAITGANGGMVIVAADDPSMHSSQNEQDSRVYGQFAMIPVMEPSNQQEAYDMTRLAFDLSERLGTPVMMRITTRLAHSRAGVVQTEPIGENELHLPEDKRQYVLLPGIAKKRYRILLDKQTDFVRESENSPYTEYVDAADKSKGIVACGIAYNYLMEAFKAQVPYPVLKVTQYPIPHKQMERLLNECGDIVVMEEGYPVVEQLLKGFPGLERIKGRLDGTLPRDGELNPDHVAKAFNIPVVEGEPIPDLVAARPPALCKGCSHRDVYDALNEVLTEYPNGRVFSDIGCYTLGALPPYEAINSCVDMGASITMAKGAADAGLFPAVSVIGDSTFTHSGITGLLDAINENSNITVIISDNESISMTGGQH”, the “soluble on expression in E. coli” value was “not soluble”. Next, “MLYVVGIGPGNEEYFTKEAENALNSVDLIVCYTGYKKYIERFDTEIYVSGMTKEVERVEYALKEAENKNVALVSNGDATIYGLASLAYELNEKNLHNVTINVVSGL”: “not soluble”; “MTTVSKPDESSFDVRTLSMKTCGSRLCVGFCYCSGVVKFRKSESVGTVDIPFPSLGACPSLTLSMSPNMNFSSRMALAPTSPMKRSKSVPNILSGEYPNSVCVVANSIDENGDAGVDVTDCASTKPLVLGKDNYQDNYWDSQETNHRNADMKTPKKKVGKISKFVNICVSELKKFKNPNSGVTSIDGVERLKKEIAPLPSSPLKLTSTSTIEFQSTVTSSSPIMRSRETTSTIQRSKIISSTTKVMSDMLMDKEGKDSEISENSINCSTNLAVNKMGDVPSLSQFEDADGLQKKLTEPVELPAKSQEVYQYDVSASPAKEDLKWSTLKKIDLIVPSFRSKKRGLVAHLKSSPISKISYDGSPSKQVGVLDGEITDDGRIDSGPAKAIIPTSTENIIMPKELNISDIGEKAEVSRGLRKRHLEDSSTPSSRGPSTPAKLITDEDATNKKKRVLGKNMVDNKASSPNKEHILPIDQLNNSSAMGISSENTAPMELKATGNDPVSDGGGYKFLVTAETGRKFDEFRAKRQRLRESWMENKSPTSNKNVQTTAVTSGFQSNEQAPENLPATMECLNKEAATTPMNDNRALLTEVGPEAALAEPKLGKPLLPVENVLQYSKSPSKTAVTNKPTKTVLKANFNAPIGKINSDISFFTPKKVFGKSEYQYGPSMGKLIQMMGTGTPKKVLPEFGSSSKTALFSPRKEEHCAGAPRGSWKIAKMRVRTKLSNFYPSSRSKNSQQIRGKWLGQNIVQFSGHHSMIAQSANDKHGANLMEISAQPSTSTTAQNI”: “not soluble”. With “MSWITNYDAAQRELLMQKVQMQMSERRFRHVLGVEETAVALAAKYGADEAKASIAALTHDYAKERPNDEFELIIRRDGFDLALLNYGNEIWHGLVGADIVQRELAIDDEEILQAIRVHTTGAAKMSLLDKIIYVADYIEPGRDFPGVKEAREIALVDLDAAVAYETKHTLLHLIEQEHKIYPKTLETYNQWVVNQK” the entry was “not soluble”. With “MSLRAIGLSNQVQHLKETVIAVEKKSKHKKTDDSLDISRIQYYMNNFVYYYINYSQDTADQRKTELENYYSFSTASMTDDVRKSRTLQTQRLISVEKEKDYYIALMRIGYEVDKKSYQMNLAVPFQMQRGLLAIVSQPYTVAEDLYLGKSKAFEKKTLDQVKELSKEQVSSIQKFLPVFFNKYALINKTDLKLLMKTPELMGKGFKVSELDLNNAIYYQEKKHQVVQLSVTFEDLVTGGTRSENFTLYLFKADNGWYVEEMYHYFKEGHHHHHH” the entry was “soluble”; with “MSITIFNRDLKEIYYEKQYKNGQLKFLYNTILGRMLLKLFISTRLFSKINAIFNNNKGSIKKIEPFINEYKIDMSEYEKKEYTSFDDFFTRKILEGKRSFSKEKSHLISPADSKLMVYEIDDDLKMNIKNSIYTVGELLNDEKLSREYKNGTCLIFRLTVDDYHRYCFIDDGSLKYRKVINGRLHTVGPISSKRYKVYSENNREYSVLKTRNFGKVIQIEVGALLVGKIKNHSIKVFKKGDEKGYFCFGGSTIVLLFKEKVIKMDEDILEYSKAGIETKIKMGEKIGETNDLEHHHHHH”, “soluble”. Turning to “MGSDKIHHHHHHMEVIHPRCAGVDISKKDAKVCVRIQGRGGRSTTSTITTWGSMTGQILGLKEHLLDEHVDLVVMEATGDYWRPFYYLLEDDGLNIILVNAHDARNVPGRKTDVSDAAWLADLGAHGLVRASFVPPPPIRELRDLTRARTIITQERTREIQRLEKLLEDACIKLSSVASNITGVSGRLILQALIDGQTDPAALAEMAQRRLRSKIPELTQALNGRFTEHHRYMTGLYLHRIDAHTADINDLSARIEAAMEPFRFARELLVSIPGFSTTIAEIFIAETGADMSAFATAGQLASWAGTSPGSNESAGRVKSTKTRPGNRYLKGALGIAALSCAKSKNTYLGARYRRIASRRGPAKALVAVEHSILTAAWHMLTTGELYNDPGADYFTRQTPVKTMARAVRQLESLGYQVILEPLQQTG”, the “soluble on expression in E. coli” value is reported as “not soluble”.

With “MTNSNDIDETAATIDTARALLKSFGFEAQRHNVRSAVTLLALAGLKPGDHWADSTTPRLGVQKIMDWSGAYWAKPYATGSREDFRKKTLRQWVDNGFAVLNPDNLNIATNSQLNEYCLSDEAAQAIRSYGTDAFESALVDFLSKASDTVRARAEALRAAMISVDLADGDEFLLSPAGQNPLLKKMVEEFMPRFAPGAKVLYIGDTRGKHTRFEKRIFEETLGLTFDPHGRMPDLVLHDKVRKWLFLMEAVKSKGPFDEERHRTLRELFATPVAGLVFVNCFENREAMRQWLPELAWETEAWVADDPDHLIHLNGSRFLGPYER”, the “soluble on expression in E. coli” value is given as “soluble”. Take “MSLKTYDAFPEPIGGYTVGRTQMDFEYTASDHSKRELTAFVYYPSDSSEGKTTSTYMFPEVYEMFNEQPLVTALKDVFSIDIKTQCYDDLALSGKEKRYPVLFYVCGGGGSPEWGTVICTDLASMGYVVVSIGHQNSTMYKRKDGRLFNVSKDFSDVIMAFSEDPEMLALAGKMEMRPDDETAIEMCHNVLTLPILAKLTEYSELQAEDVRYVADYLYKLDSGELNSIFKGRLLLDIGMGIVGHSYGGPTTAIVCRDDDRFACGIGLDSGAFGLLDSDLKKPFLLLFCEPNYNMNAIIGANNSMETYYFSVDRVAHLDYCDIVFTSVNEELRGERDAMEMRNLVTDYTKNFFDHYILLKAASVESLAYDGVDLIKKTSNKEGHHHHHH”: the “soluble on expression in E. coli” value is on record as “soluble”. For the sequence “MGHHHHHHSHQMVNQQQNKFDLRPLMEAVDTVKQKITLLENNDQRLAVLEEETNKHDTHINIHKAQLSKNEERFKLLEGTCYNGKLIWKVTDYKMKKREAVDGHTVSIFSQSFYTSRCGYRLCARAYLNGDGSGRGSHLSLYFVVMRGEFDSLLQWPFRQRVTLMLLDQSGKKNIMETFKPDPNSSSFKRPDGEMNIASGCPRFVAHSVLENAKNAYIKDDTLFLKVAVDLTDLEDL”, the “soluble on expression in E. coli” value was “not soluble”. Next, “MPITKIHARQIYDSRGNPTVEVDLFTEKGVFRAAVPSGASTGVHEALELRDGDKAVHLGKGVLKAVSNINEKIAPALIAKGFDVTAQKDIDDFMMALDGSENKGNLGANAILGVSLAVAKAGAVHKGLPLYKYIAELAGTGKVVLPVPAFNVINGGSHAGNKLAMQEFMILPVGASSFAEAMRMGSEVYHHLKAEIKKRYGLDATAVGDEGGFAPNIQDNKEGLDLLNTAIDKAGYTGKISIGMDVAASEFFKDGKYDLDFKNPASDSSKWLSGEQLTELYQSFIKEYPVVSIEDAFDQDDWDNWGKFHGATSIQLVGDDLTVTNPKRIQTAIDKKSCNCLLLKVNQIGSVTESIEAAKLSRANGWGVMVSHRSGETEDTFIADLVVGLATGQIKTGAPCRSERLAKYNQLLRIEEELGADAVYAGHNFRNPQV”: “not soluble”; “MGSDKIHHHHHHMRPVDKGKDLGSFKPYNKACAPLQDRLGEYCSYCERWIAAAIEVEHILPKKANPSQKYRWSNFLLACKNCNTGKGSDQIIVTDYLWPDLDNTFLAFCYDDEGRAYPNPRLPPAILEKAKATWTLTNLNWHPDTTFTGMVAPSEKDHRHSHRKQAWIYASDKRNQLLQYDTPDRRVSVAKDALQRGMFSVWMTVFNTTSELDREIRRLLIENFVGTATNCFDRLGNAHRSSTGQI”: “not soluble”; “GYDCLGYYQNQEDIMNSPKRQSSVNLGAGDLKYNDFNGDGIIDGSDQHRIGKNSMPRGQYGFSADLNYKGWFMNMLWQGATPADLYMGGMIQGSQSGSGYPPVIYDFQTDVWTPNNTGARYPRLRSTASYNGSNNYGSSDFWLINTGYLRLKTLSIGYDFKHKLLKRVAWMNKCNVSLNGYNLLTFSKANKFDIDPEIGDGNLYTYPVSRVYSISVNVGF”: “not soluble”.
